From article doi:10.1101/2022.08.24.505111 (bioRxiv, 2022)

Biological target: the molecule itself
Assay: crystal structure

B1: Chloramphenicol acetyltransferase III (CATIII+GG construct) (enzyme)
chain: SGGNYTKFDVKNWVRREHFEFYRHRLPCGFSLTSKIDITTLKKSLDDSAYKFYPVMIYLIAQAVNQFDELRMAIKDDELIVWDSVDPQFTVFHQETETFSALSCPYSSDIDQFMVNYLSVMERYKSDTKLFPQGVTPENHLNISALPWVNFDSFNLNVANFTDYFAPIITMAKYQQEGDRLLLPLSVQVHHAVCDGFHVARFINRLQELCNSKLK
  stoichiometry N: 3
